Laboratory results taken from IntAct's records for PubMed 17965270.

B1: B-box zinc finger protein 21 (Arabidopsis thaliana (Mouse-ear cress)), Q9LQZ7 (parent)
chain: MKIRCDVCDKEEASVFCTADEASLCGGCDHQVHHANKLASKHLRFSLLYPSSSNTSSPLCDICQDKKALLFCQQDRAILCKDCDSSIHAANEHTKKHDRFLLTGVKLSATSSVYKPTSKSSSSSSSNQDFSVPGSSISNPPPLKKPLSAPPQSNKIQPFSKINGGDASVNQWGSTSTISEYLMDTLPGWHVEDFLDSSLPTYGFSKSGDDDGVLPYMEPEDDNNTKRNNNNNNNNNNNTVSLPSKNLGIWVPQIPQTLPSSYPNQYFSQDNNIQFGMYNKETSPEVVSFAPIQNMKQQGQNNKRWYDDGGFTVPQITPPPLSSNKKFRSFW
partner: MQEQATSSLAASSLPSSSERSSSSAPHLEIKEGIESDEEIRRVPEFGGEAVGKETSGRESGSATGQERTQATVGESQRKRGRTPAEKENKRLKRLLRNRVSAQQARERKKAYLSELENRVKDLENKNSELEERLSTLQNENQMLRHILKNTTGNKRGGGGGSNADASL

Variants of: B1
Settings: with hy5_arath HY5, O24646

| effect of a mutation on the interaction | Variant |
| --- | --- |
| disrupting interaction | D75A |
| disrupting interaction | D20A |
| disrupting interaction | D84A |
